Results reported in patent publication US20260234227A1 (CEPHALON, published 2026).
Numbering of substitutions follows the chain as printed. Names and notes keep the numbering of the source.

Tests used:
[1] = target: T1, vasoactive intestinal peptide (VIP) (human); experiment: SPR; target VIP
T1 peptide: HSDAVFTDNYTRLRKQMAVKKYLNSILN
Method: (§1) In brief, antibody and peptide interaction was determined on a Biacore S200 (GE Healthcare) by method previously described (Andreu and Gomes 2002). An anti-Human IgG Fc capture antibody was immobilized on a CM5 biosensor chip via standard amine coupling. Anti-PACAP antibodies were injected and captured to 200 to 400 response units (RU),). PACAP38, PACAP27 and VIP were diluted in HBS-EP+buffer containing 0.1% w/v BSA (Bovostar, catalog number BSAS1.0) and 0.15 M NaCl (Sigma-Aldrich catalog number S7653), pH 7.4. Binding kinetics of antibodies were determined by injection of two-fold serial dilutions of PACAPs (12 nm to 0 nM) and VIP (1200 nM to 0 nM) in running buffer at 37° C. with a flow rate of 40 uL/min for 2 min followed by a dissociation for 10 minutes. For subsequent cycles, the chip was regenerated using 0.85% phosphoric acid. Data was analysed with the Biacore S200 Evaluation Software (ver 1.0). Association rate (kₐ) and dissociation rate (kd) constants were determined using a simple one-to-one Langmuir binding model and used to calculate the equilibrium dissociation constant (KD).
(§2) The selectivity of antibody 890C was assessed by comparing the inhibition of PACAP38-signalling to inhibition of VIP-signalling in a cyclic AMP (cAMP) measuring cell-based functional assay.

[2] = target: T2, pituitary adenylate cyclase-activating peptide, 38-amino acid peptide (PACAP38) (human, not fully specified); experiment: cell-based or functional assay
T2 peptide: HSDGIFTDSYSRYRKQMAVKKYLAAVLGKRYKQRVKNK

[3] = target: T3, pituitary adenylate cyclase-activating peptide, 27-amino acid peptide (PACAP27) (human, not fully specified); experiment: SPR; target PACAP27
T3 peptide: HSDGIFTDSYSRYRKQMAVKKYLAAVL
Method: as §1, §2

[4] = target: T4, Glucagon-Like Peptide 2 (GLP-2); experiment: SPR (Biacore), captured antibody, 37.5 nM peptide injected at 37 C, relative response after 15 sec dissociation
T4 peptide: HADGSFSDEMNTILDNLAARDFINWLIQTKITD
Method: (§3) The anti-PACAP antibodies, e.g., 890C, were tested against related peptides in the Secretin Glucagon family (Table 10) to determine the presence and extent of any off-target binding. Nine bioactive peptides in the glucagon superfamily are: PACAP, VIP, glucagon, Glucagon-Like Peptides (GLP-1, GLP-2), Growth Hormone Releasing Factor (GRF or GHRF), Peptide Histidine Methionine (PHM), secretin, and Gastric inhibitory polypeptide (GIP). Following capture of antibodies as described in example 4, the antibody and the peptide interaction was measured by injection of 37.5 nM of each peptide diluted in buffer at 37° C. with a flow rate of […] for 2 min followed by a dissociation phase of 4-5 min. Samples were injected in a multi-cycle manner over freshly captured anti-PACAP antibody, by regenerating the capture surfaces with two injections of 0.85% phosphoric acid at a flow rate of 30 μL/min.
as §2

Glucagon = experiment: as above
Method: as §3, §2

[5] = target: T5, Glucagon-Like Peptide 1 (GLP-1); experiment: as above
T5 peptide: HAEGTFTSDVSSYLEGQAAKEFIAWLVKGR
Method: as §3, §2

Secretin = target: T6, Secretin; experiment: as above
T6 construct: the listing entry is to be used
T6 peptide: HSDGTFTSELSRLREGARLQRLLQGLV
Method: as §3, §2

[6] = target: T7, Gastric inhibitory polypeptide (GIP); experiment: as above
T7 peptide: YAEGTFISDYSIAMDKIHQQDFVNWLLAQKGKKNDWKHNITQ
Method: as §3, §2

[7] = target: T8, Growth Hormone Releasing Factor (GRF or GHRF); experiment: as above
T8 construct: the listing entry is to be used
T8 peptide: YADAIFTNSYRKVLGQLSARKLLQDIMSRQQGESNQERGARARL
Method: as §3, §2

[8] = target: T9, Peptide Histidine Methionine (PHM); experiment: as above
T9 peptide: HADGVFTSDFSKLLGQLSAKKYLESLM
Method: as §3, §2

[9] = target: T2, pituitary adenylate cyclase-activating …; experiment: cell-based or functional assay
[10] = target: T2, pituitary adenylate cyclase-activating …; experiment: cell-based or functional assay
[11] = target: T1, vasoactive intestinal peptide (VIP); experiment: cell-based or functional assay
[12] = target: T2, pituitary adenylate cyclase-activating …; experiment: SPR; target PACAP38
Method: as §1, §2

[13] = target: T2, pituitary adenylate cyclase-activating …; experiment: cell-based or functional assay
[14] = target: T2, pituitary adenylate cyclase-activating …; experiment: SPR (Biacore) off-rate ranking, antibody captured from supernatant, single injection of 33.3 nM PACAP38
Method: as §1, with “Binding kinetics of antibodies were determined by injection of two-fold serial dilutions of PACAPs (12 nm to 0 nM) and VIP (1200 nM to 0 nM) in running buffer at 37° C. with a flow rate of 40 uL/min for 2 min followed by a dissociation for 10 minutes.” left out

[15] = target: T2, pituitary adenylate cyclase-activating …; experiment: SPR (Biacore), 37 C, antibody captured by anti-human IgG Fc, PACAP-38 as analyte
Method: as §1

[16] = target: T3, pituitary adenylate cyclase-activating …; experiment: SPR (Biacore S200), 37 C, captured antibody, two-fold dilutions of peptide, 1:1 Langmuir model
[17] = target: T2, pituitary adenylate cyclase-activating …; experiment: as above
[18] = target: T1, vasoactive intestinal peptide (VIP); experiment: SPR (Biacore S200), 37 C, captured antibody, steady state binding

Chain of Glucagon (peptide, as listed by the source): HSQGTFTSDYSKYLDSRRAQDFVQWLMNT

B1: anti-PACAP antibody 890C (antibody, human IgG4 S228P, kappa, V domains shown)
VH: EVQLVQSGAEVKKPGSSVKVSCKASGGTFSDVYMHWVRQAPGQGLEWMGLIYPIFADTRYAQKFQGRVTITADESTSTAYMELSSLRSEDTAVYYCAIDQDGSFAYWGQGTLVTVSS
VL: DIVMTQSPDSLAVSLGERATINCKSSQSLLDADGKTYLNWLQQKPGQPPKRLIYWASTRESGVPDRFSGSGSGTDFTLTISSLQAEDVAVYYCWQGTWFDLTFGGGTKVEIKR
notes: LC S(27E)A, G29, L50W, V51A, K53T, L54R, D55E, H93W, P95D
B1 was tested, and the Kd [1] was 390 nM, the “selectivity, inhibition of PACAP38-induced cAMP production (PAC1 cells) versus VIP-induced cAMP production (VPAC1 cells)” value [2] was greater than 1000 fold and the Kd [3] was 0.218 nM. B1: no binding (tested: 37.5 nM) [4]; no binding (tested: 37.5 nM) (Glucagon); no binding (tested: 37.5 nM) [5]. B1: no binding (tested: 37.5 nM) (Secretin); no binding (tested: 37.5 nM) [6]; no binding (tested: 37.5 nM) [7]. The binding result [8] was “no binding (tested: 37.5 nM)”, the “IC50 (nM), inhibition of PACAP-induced cAMP accumulation” value [9] was 0.32 nM and the “IC50 (read off the curve), PACAP38-induced cAMP production in CHO-K1 cells expressing PAC1” value [10] was roughly 0.4 nM. For the same binder, the “IC50 (read off the curve), VIP-induced cAMP production in CHO-K1 cells expressing VPAC1” value [11] was roughly 600 nM, the “fold shift of the VIP/VPAC1 inhibition curve relative to the PACAP/PAC1 inhibition curve (selectivity)” value [11] was 1400 fold and the Kd [12] was 0.054 nM. The “IC50 (nM), PACAP-induced cAMP accumulation in CHO-K1 receptor cell lines (cAMP-Glo)” value [13] was 0.32 nM, the Kd [14] was 0.0284 nM and the koff [14] was 0.000671 s⁻¹. The kon [14] was 2.36e+07 M⁻¹ s⁻¹, the Kd [15] was 0.0284 nM and the koff [15] was 0.000671 s⁻¹. For the same binder, the kon [15] was 2.36e+07 M⁻¹ s⁻¹.

B2: anti-PACAP antibody 605C (antibody, V domains shown)
VH: B1 VH with V32S
VL: DIVMTQSPDSLAVSLGERATINCKSSQSLLDADGKTYLNWLQQKPGQPPKRLIYWASTRESGVPDRFSGSGSGTDFTLTISSLQAEDVAVYYCWQGTWFDLTFGGGTKVEIK
Work on B2 yielded a Kd [16] of 0.154 nM, a koff [16] of 0.00101 s⁻¹ and a kon [16] of 6.58e+06 M⁻¹ s⁻¹. It also gave a Kd [17] of 0.0328 nM, a koff [17] of 0.000565 s⁻¹ and a kon [17] of 1.72e+07 M⁻¹ s⁻¹. For the same binder, the “IC50 (nM), inhibition of PACAP-induced cAMP accumulation” value [9] was 0.15 nM, the Kd [18] was 225 nM and the Kd [14] was 0.017 nM. For the same binder, the koff [14] was 0.000566 s⁻¹, the kon [14] was 3.33e+07 M⁻¹ s⁻¹ and the Kd [15] was 0.017 nM. For the same binder, the koff [15] was 0.000566 s⁻¹ and the kon [15] was 3.33e+07 M⁻¹ s⁻¹.
